Assay [1] deals with antibody tested in the epitope mapping of Example 5. The assay can be described thus: HTRF competition, test protein against biotinylated human IL-4Rα/Fc for cryptate labelled antibody. (TR-FRET usually uses a lanthanide donor and a delayed reading to cut background.)
For assay [2] the target is unchanged. The assay is described as above. The source holds these as a separate data set.
The target is the same in assay [3]. Description: HTRF competition.
For assay [4] the target is unchanged. Description: HTRF competition, test protein against biotinylated human IL-4Rα/Fc for cryptate labelled antibody. This is another data set of the same source.

Experimental findings from patent US20180057596A1 are described below.

A word on the IC50: it is the midpoint of a concentration-inhibition curve. Higher therefore signals lower potency. Broadly, the % inhibition is the change of the read-out against control, counted positive when it falls. A low value points to little suppression.

Read-outs that look alike come from different tables or passages of the source.

B1: MoLoop2HuIL-4Rα (receptor)
chain: MKVLQEPTCVSDYMSISTCEWKMNGPTNCSTELRLLYQLMFFEFSENLTCIPENNGGAGCVCHLLMDDVVSADNYTLDLWAGQQLLWKGSFKPSEHVKPRAPGNLTVHTNVSDTLLLTWSNPYPPDNYLYNHLTYAVNIWSENDPADFRIYNVTYLEPSLRIAASTLKSGISYRARVRAWAQCYNTTWSEWSPSTKWHNSYREPFDYKDDDDKAAHHHHHHHHHH
Take B1: the values for the IC50 in assay [1] and in assay [2] were 23 nM and 25 nM, respectively. Also, the fold higher IC50 than human IL-4Rα in assay [3] was 100 fold.

B2: EM18 (receptor)
chain: MKVLQEPTCVSDYMSISTCEWKMNGPTNCSTELRLLYQLVFFEFSENLTCIPENNGGAGCVCHLLMDDVVSADNYTLDLWAGQQLLWKGSFKPSEHVKPRAPGNLTVHTNVSDTLLLTWSNPYPPDNYLYNHLTYAVNIWSENDPADFRIYNVTYLEPSLRIAASTLKSGISYRARVRAWAQCYNTTWSEWSPSTKWHNSYREPFDYKDDDDKAAHHHHHHHHHH
In the case of B2, the IC50 in assay [2] came to 20 nM.

B3: EM23 (receptor)
chain: MKVLQEPTCVSDYMSISTCEWKMNGPTNCSTELRLLYQLMFFEFSENHTCIPENNGGAGCVCHLLMDDVVSADNYTLDLWAGQQLLWKGSFKPSEHVKPRAPGNLTVHTNVSDTLLLTWSNPYPPDNYLYNHLTYAVNIWSENDPADFRIYNVTYLEPSLRIAASTLKSGISYRARVRAWAQCYNTTWSEWSPSTKWHNSYREPFDYKDDDDKAAHHHHHHHHHH
As for B3, the 50% inhibitory concentration (IC50) in assay [2] amounted to 56 nM.

B4: AllMoLoopsHuIL-4Rα (receptor)
chain: MKVLQEPTCVSDYIRTSTCEWKMNGPTNCSTELRLLYQLMFFEFSENLTCIPENNGGAGCVCHLEMNRPVQSDRYTLDLWAGQQLLWKGSFKPSEHVKPRAPGNLTVHTNVSDTLLLTWNNLYPSNNYLYNHLTYAVNIWSENDPADFRIYNVTYLEPSLRIAASTLKSGISYRARVRAWSQILTGTWSEWSPSTKWHNSYREPFDYKDDDDKAAHHHHHHHHHH
For the molecule B4, the % inhibition at the highest concentration (1000 nM) in assay [1] was found to be 41%.

B5: HuD1MoD2IL-4Rα (receptor)
chain: MKVLQEPTCVSDYMSISTCEWKMNGPTNCSTELRLLYQLVFLLSEAHTCIPENNGGAGCVCHLLMDDVVSADNYTLDLWAGQQLLWKGSFKPSENVKPLAPDNLTLHTNVSDEWLLTWNNLYPSNNLLYKDLISMVNISREDNPAEFIVYNVTYKEPRLSFPINILMSGVYYTARVRVRSQILTGTWSEWSPSITWYNHFQLPLDYKDDDDKAAHHHHHHHHHH
B5: the IC50 in assay [1] was 3.4 nM.

B6: EM01 (receptor)
chain: MKVLQEPTCVSDYMSISTCEWKMNGPTNCSTELRLLYQLVFLLSEAHTCIPENNGGAGCVCHLEMDDVVSADNYTLDLWAGQQLLWKGSFKPSEHVKPRAPGNLTVHTNVSDTLLLTWSNPYPPDNYLYNHLTYAVNIWSENDPADFRIYNVTYLEPSLRIAASTLKSGISYRARVRAWAQCYNTTWSEWSPSTKWHNSYREPFNPAFLYKVVGAADYKDDDDKAAHHHHHHHHHH
B6 displayed a half-maximal inhibitory concentration (IC50) in assay [4] of 0.71 nM.

B7: EM07 (receptor)
chain: MKVLQEPTCVSDYMSISTCEWKMNGPTNCSTELRLLYQLVFLLSEAHTCIPENNGGAGCVCHLLMDDVVSADRYTLDLWAGQQLLWKGSFKPSEHVKPRAPGNLTVHTNVSDTLLLTWSNPYPPDNYLYNHLTYAVNIWSENDPADFRIYNVTYLEPSLRIAASTLKSGISYRARVRAWAQCYNTTWSEWSPSTKWHNSYREPFNPAFLYKVVGAADYKDDDDKAAHHHHHHHHHH
In turn, B7 returned an IC50 in assay [4] of 1.41 nM. Compared with the last molecule, the IC50 is about 2-fold higher.

B8: EM06 (receptor)
chain: MKVLQEPTCVSDYMSISTCEWKMNGPTNCSTELRLLYQLVFLLSEAHTCIPENNGGAGCVCHLLMDDVVSSDNYTLDLWAGQQLLWKGSFKPSEHVKPRAPGNLTVHTNVSDTLLLTWSNPYPPDNYLYNHLTYAVNIWSENDPADFRIYNVTYLEPSLRIAASTLKSGISYRARVRAWAQCYNTTWSEWSPSTKWHNSYREPFNPAFLYKVVGAADYKDDDDKAAHHHHHHHHHH
As to B8, the concentration for half-maximal inhibition (IC50) in assay [4] came out at 3.25 nM.

B9: EM02 (receptor)
chain: MKVLQEPTCVSDYMSISTCEWKMNGPTNCSTELRLLYQLVFLLSEAHTCIPENNGGAGCVCHLLMNDVVSADNYTLDLWAGQQLLWKGSFKPSEHVKPRAPGNLTVHTNVSDTLLLTWSNPYPPDNYLYNHLTYAVNIWSENDPADFRIYNVTYLEPSLRIAASTLKSGISYRARVRAWAQCYNTTWSEWSPSTKWHNSYREPFNPAFLYKVVGAADYKDDDDKAAHHHHHHHHHH
With B9, the IC50 in assay [4] turned out to be 2.25 nM. The IC50 values of the last two molecules are within 1.5-fold of each other.

B10: EM05 (receptor)
chain: MKVLQEPTCVSDYMSISTCEWKMNGPTNCSTELRLLYQLVFLLSEAHTCIPENNGGAGCVCHLLMDDVVQADNYTLDLWAGQQLLWKGSFKPSEHVKPRAPGNLTVHTNVSDTLLLTWSNPYPPDNYLYNHLTYAVNIWSENDPADFRIYNVTYLEPSLRIAASTLKSGISYRARVRAWAQCYNTTWSEWSPSTKWHNSYREPFNPAFLYKVVGAADYKDDDDKAAHHHHHHHHHH
In assay [4], B10 came in with a half-inhibitory concentration (IC50) of 1.65 nM. The IC50 values of the last two molecules are within 1.5-fold of each other.

B11: EM03 (receptor)
chain: MKVLQEPTCVSDYMSISTCEWKMNGPTNCSTELRLLYQLVFLLSEAHTCIPENNGGAGCVCHLLMDRVVSADNYTLDLWAGQQLLWKGSFKPSEHVKPRAPGNLTVHTNVSDTLLLTWSNPYPPDNYLYNHLTYAVNIWSENDPADFRIYNVTYLEPSLRIAASTLKSGISYRARVRAWAQCYNTTWSEWSPSTKWHNSYREPFNPAFLYKVVGAADYKDDDDKAAHHHHHHHHHH
In the case of B11, the % inhibition at the highest concentration (1000 nM) in assay [4] worked out at 29%.

B12: EM04 (receptor)
chain: MKVLQEPTCVSDYMSISTCEWKMNGPTNCSTELRLLYQLVFLLSEAHTCIPENNGGAGCVCHLLMDDPVSADNYTLDLWAGQQLLWKGSFKPSEHVKPRAPGNLTVHTNVSDTLLLTWSNPYPPDNYLYNHLTYAVNIWSENDPADFRIYNVTYLEPSLRIAASTLKSGISYRARVRAWAQCYNTTWSEWSPSTKWHNSYREPFNPAFLYKVVGAADYKDDDDKAAHHHHHHHHHH
In turn, B12 yielded an IC50 in assay [4] of 15 nM. The fold higher IC50 than human IL-4Rα in assay [3] turned out to be 20 fold.

B13: MoD1HuD2IL-4Rα (receptor)
chain: IKVLGEPTCFSDYIRTSTCEWFLDSAVDCSSQLCLHYRLMFFEFSENLTCIPRNSASTVCVCHMEMNRPVQSDRYQMELWAEHRQLWQGSFSPSGHVKPRAPGNLTVHTNVSDTLLLTWSNPYPPDNYLYNHLTYAVNIWSENDPADFRIYNVTYLEPSLRIAASTLKSGISYRARVRAWAQCYNTTWSEWSPSTKWHNSYREPFDYKDDDDKAAHHHHHHHHHH
Take B13: the % inhibition at the highest concentration (1000 nM) in assay [1] was 34%.

B14: MoIL-4Rα (receptor)
chain: IKVLGEPTCFSDYIRTSTCEWFLDSAVDCSSQLCLHYRLMFFEFSENLTCIPRNSASTVCVCHMEMNRPVQSDRYQMELWAEHRQLWQGSFSPSGNVKPLAPDNLTLHTNVSDEWLLTWNNLYPSNNLLYKDLISMVNISREDNPAEFIVYNVTYKEPRLSFPINILMSGVYYTARVRVRSQILTGTWSEWSPSITWYNHFQLPLNPAFLYKVVGAADYKDDDDKAAHHHHHHHHHH
B14: in assay [1], the % inhibition at the highest concentration (1000 nM) worked out at 45%.

B15: MoLoop3HuIL-4Rα (receptor)
chain: MKVLQEPTCVSDYMSISTCEWKMNGPTNCSTELRLLYQLVFLLSEAHTCIPENNGGAGCVCHLEMNRPVQSDRYTLDLWAGQQLLWKGSFKPSEHVKPRAPGNLTVHTNVSDTLLLTWSNPYPPDNYLYNHLTYAVNIWSENDPADFRIYNVTYLEPSLRIAASTLKSGISYRARVRAWAQCYNTTWSEWSPSTKWHNSYREPFDYKDDDDKAAHHHHHHHHHH
Consider B15, for which the % inhibition at the highest concentration (1000 nM) was 58% in assay [1] and 45% in assay [4].
